Test results published in US20140227291A1 (AbbVie / Abbott, published 2014).

T1: Abeta(12-42) globulomer (human)
T1 construct: Oligomer
T1 peptide: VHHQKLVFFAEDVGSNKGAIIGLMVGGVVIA

T2: Abeta(20-42) globulomer (human)
T2 construct: Oligomer; also called amyloid-beta (20-42) globulomer
T2 peptide: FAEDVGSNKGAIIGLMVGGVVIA


How the values were obtained:
Abeta(12-42) globulomer [1] = target: T1, Abeta(12-42) globulomer; test: dot blot, antigen dilution series on nitrocellulose, antibody 0.2 µg/ml, densitometry
Protocol: (§1) The dot blot was developed with 10 ml BM Blue POD Substrate for 10 min. The development was stopped by intense washing of the dot blot with H₂O. Quantitative evaluation was done based on a densitometric analysis (GS800 densitometer (BioRad) and software package Quantity one, Version 4.5.0 (Bio-Rad)) of the dot intensity. […] This threshold value was determined for every dot blot independently. The calculated value indicates the relation between recognition of Aβ(20-42) globulomer and the respective Aβ form for the given antibody.
(§2) The individual Aβ forms were applied in serial dilutions and incubated with the respective antibodies for immune reaction (1=Aβ(1-42) monomer, 0.1% NH₄OH; 2=Aβ(1-40) monomer, 0.1% NH₄OH; 3=Aβ(1-42) monomer, 0.1% NaOH; 4=Aβ(1-40) monomer, 0.1% NaOH; 5=Aβ(1-42) globulomer; 6=Aβ(12-42) globulomer; 7=Aβ(20-42) globulomer; 8=Aβ(1-42) fibril preparation; 9=sAPPα (Sigma); (first dot: 1 pmol)).

Abeta(20-42) globulomer = target: T2, Abeta(20-42) globulomer; test: dot blot, antigen dilution series on nitrocellulose, antibody 0.2 µg/ml, densitometry; reference antigen
Protocol: as §1, §2

[2] = target: T3, sAPPalpha (Sigma cat. no. S9564) (UniProt P05067-4 18-612, limits assumed); test: dot blot, antigen dilution series on nitrocellulose (first dot 1 pmol), antibody 0.2 µg/ml, densitometry
T3 construct: Bought protein; also called sAPPα; soluble Abeta precursor
T3 sequence (P05067 other isoform, or with tags, fused parts or gaps limits assumed): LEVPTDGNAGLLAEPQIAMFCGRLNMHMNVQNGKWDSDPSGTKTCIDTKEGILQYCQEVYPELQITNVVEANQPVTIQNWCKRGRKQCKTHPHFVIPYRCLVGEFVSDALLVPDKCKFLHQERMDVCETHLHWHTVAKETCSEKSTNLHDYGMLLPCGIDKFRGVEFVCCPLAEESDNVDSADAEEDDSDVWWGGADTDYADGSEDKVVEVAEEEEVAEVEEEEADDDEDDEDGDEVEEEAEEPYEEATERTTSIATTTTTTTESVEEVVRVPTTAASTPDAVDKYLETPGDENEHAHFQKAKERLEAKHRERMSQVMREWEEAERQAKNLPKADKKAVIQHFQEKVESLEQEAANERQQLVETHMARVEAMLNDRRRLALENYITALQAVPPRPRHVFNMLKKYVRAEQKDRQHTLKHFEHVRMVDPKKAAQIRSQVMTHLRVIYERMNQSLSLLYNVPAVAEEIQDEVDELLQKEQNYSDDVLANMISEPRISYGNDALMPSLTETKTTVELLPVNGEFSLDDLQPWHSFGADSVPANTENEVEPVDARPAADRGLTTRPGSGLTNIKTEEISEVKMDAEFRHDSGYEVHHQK

Abeta(1-42) globulomer [3] = target: T4, Abeta(1-42) globulomer (human, UniProt P05067 672-713); test: dot blot: antigen dilution series dotted on nitrocellulose, anti-mouse-IgG-POD detection
T4 construct: also called 38/48-kDa Abeta(1-42) globulomer
Protocol: (§3) In order to characterize the selectivity of monoclonal anti Aβ(20-42) globulomer antibodies, they were tested for binding to different Aβ-forms. To this end, serial dilutions of the individual Aβ(1-42) forms ranging from 100 pmol/μl to 0.00001 pmol/μl in PBS supplemented with 0.2 mg/ml BSA were prepared. 1 μl of each dilution was blotted onto a nitrocellulose membrane. Detection was performed by incubating with the corresponding antibody (0.2 μg/ml) followed by immunostaining using Peroxidase conjugated anti-mouse-IgG and the staining reagent BM Blue POD Substrate (Roche).
as §2

[4] = target: T5, Abeta(1-40) monomer in 0.1% NaOH (human); test: as above
T5 construct: also called Abeta(1-40) monomer, 0.1% NaOH
T5 sequence (peptide, as listed by the source): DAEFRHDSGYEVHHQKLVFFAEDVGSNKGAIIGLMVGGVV
Protocol: as §3, §2

[5] = target: T6, Abeta(1-42) monomer in 0.1% NH4OH (human); test: as above
T6 construct: also called Abeta(1-42) monomer, 0.1% NH4OH
Protocol: as §3, §2

[6] = target: T7, Abeta(1-42) monomer in 0.1% NaOH (human); test: as above
T7 construct: also called Abeta(1-42) monomer, 0.1% NaOH
Protocol: as §3, §2

Abeta(12-42) globulomer [7] = target: T1, Abeta(12-42) globulomer; test: as above
Protocol: as §3, §2

[8] = target: T8, Abeta(1-40) monomer in 0.1% NH4OH (human); test: as above
T8 construct: also called Abeta(1-40) monomer, 0.1% NH4OH
T8 sequence (peptide, as listed by the source): as above
Protocol: as §3, §2

[9] = target: T9, Abeta(1-42) fibril preparation (human, UniProt P05067 672-713); test: as above
T9 construct: also called Abeta(1-42) fibrils
Protocol: as §3, §2

[10] = target: T3, sAPPalpha (Sigma cat. no. S9564); test: as above
Protocol: as §3, §2

Abeta(1-42) globulomer [11] = target: T4, Abeta(1-42) globulomer; test: dot blot, antigen dilution series on nitrocellulose, antibody 0.2 µg/ml, densitometry
Protocol: as §1, §2

[12] = target: T5, Abeta(1-40) monomer in 0.1% NaOH; test: as above
Protocol: as §1, §2

[13] = target: T6, Abeta(1-42) monomer in 0.1% NH4OH; test: as above
Protocol: as §1, §2

[14] = target: T7, Abeta(1-42) monomer in 0.1% NaOH; test: as above
Protocol: as §1, §2

[15] = target: T8, Abeta(1-40) monomer in 0.1% NH4OH; test: as above
Protocol: as §1, §2

[16] = target: T9, Abeta(1-42) fibril preparation; test: as above
Protocol: as §1, §2

dot blot ratio (recognition of Abeta(20-42) globulomer relative to this Abeta form) (Abeta(12-42) globulomer [1]) | dot blot ratio (recognition of Abeta(20-42) globulomer relative to this Abeta form) (Abeta(20-42) globulomer) | dot blot ratio (recognition of Abeta(20-42) globulomer relative to this Abeta form) [2] | binding result (Abeta(1-42) globulomer [3]) | binding result [4] | binding result [5] | binding result [6] | binding result (Abeta(12-42) globulomer [7]) | binding result [8] | binding result [9] | binding result [10] | dot blot ratio (recognition of Abeta(20-42) globulomer relative to this Abeta form) (Abeta(1-42) globulomer [11]) | dot blot ratio (recognition of Abeta(20-42) globulomer relative to this Abeta form) [12] | dot blot ratio (recognition of Abeta(20-42) globulomer relative to this Abeta form) [13] | dot blot ratio (recognition of Abeta(20-42) globulomer relative to this Abeta form) [14] | dot blot ratio (recognition of Abeta(20-42) globulomer relative to this Abeta form) [15] | dot blot ratio (recognition of Abeta(20-42) globulomer relative to this Abeta form) [16] | Binder
6 | 1 | 0.2 | – | – | – | – | – | – | – | – | – | – | – | – | – | – | Anti-Abeta monoclonal antibody clone 6E10 (Covance cat. no. SIG-39320) (antibody, V domains shown) VH: EVQLQQSGAELVKPGASVKLCTASGFNIKDTYIHWVKQRPEQGLEWIGRFDPVNVNTRYDSRFRGKATITSDASSNTAYLHLNSLTSEDTAVYYCSRSYYNGRRRFTYWGQGTLVTVSA VL: DIVMTQSPSSLTVTAGEKVALTCKASQSLLSSGNQKNYLTWYQQKPGQPPKLLIYWASIRESGVPDRFTGSGSGTFFTLTISSVQAEDLAVYYCQNDYNYPFTFGSGTKLEIK
– | – | – | no binding | no binding | no binding | no binding | no binding | no binding | no binding | no binding | – | – | – | – | – | – | murine monoclonal antibody m10B3 (antibody, V domains shown, Murine monoclonal antibody from hybridoma after immunization of mice with Abeta(20-42) globulomer; also called mAb m10B3; mAb 10B3) VH: EVKLVESGGGLVQPGGSRKLSCAASGFTFSDYEMVWVRQAPGEGLEWVAYISSGSRTIHYADTVKGRFTISRDNPKNTLFLQMSSLRSEDTAMYYCARTLLRLHFDYWGQGTILTVSS VL: not shown
60000 | 1 | – | no binding | no binding | no binding | no binding | no binding | no binding | no binding | no binding | 30000 | 110000 | 36000 | 39500 | 27300 | 32600 | murine monoclonal antibody m4C9 (antibody, V domains shown, Murine monoclonal antibody from hybridoma after immunization of mice with Abeta(20-42) globulomer; also called mAb m4C9; mAb 4C9) VH: QVQLQQPGAELVKPGASVKLSCKAPGYTFTSYWMHWVKQRPGQGLEWIGRIDPKSGDTKYTEKFKSKATLTVDKPSSTAYMQLSSLTSEDSAVYYCTTMSKLSGTHAWFAYWGQGTLVTVSA VL: DIKMTQSPSSMYASLGERVTITCKASQDINSYLTWFQQKPGKSPKTLIYRANRLVDGVPSRFSGSGSGQDYSLTISSLEYEDMGIYYCLQYDEFPLTFGAGTKLELK
